Assay results from article PMC3424247, “The Crystal Structures of the Tryparedoxin-Tryparedoxin Peroxidase Couple Unveil the Structural Determinants of Leishmania Detoxification Pathway” (PLoS Neglected Tropical Diseases, 2012).

B1: cytosolic tryparedoxin from Leishmania major (enzyme, UniProt E9ADX4 1-145, looked up)
chain: MSGVAKHLGEALKLRKQADTADMDSLSGKTVFFYFSASWCPPCRGFTPQLVEFYEKHHDSKNFEIILASWDEEEDDFNAYYAKMPWLSIPFANRNIVEALTKKYSVESIPTLIGLNADTGDTVTTRARHALTQDPMGEQFPWRDE
notes: cytosolic tryparedoxin (TXN1) of Leishmania major, gene amplified from L. major DNA with primers that hold the start (CATATG) and the stop codon; residues 2-145 seen in the crystal; Cloned between NdeI and HindIII of pET28b; the tag is probably N-terminal and thrombin probably leaves a few vector residues (surmised); Monomer-dimer equilibrium in solution, mostly monomer; also called LmTXN; TXN; …

Columns and labels:
[1] = molecular target: cytosolic tryparedoxin from Leishmania major (Leishmania major) (UniProt E9ADX4); assay: SPR; as a6 but HBS-P buffer + 30 mM H2O2 (oxidizing conditions); LmTXNPx 80 nM-10 µM
[2] = molecular target: tryparedoxin-dependent peroxidase from Leishmania major (Leishmania major); assay: native gel or EMSA; Novex 4-12% Tris-Glycine non-denaturing gels; LmTXNPx 0.5 mg/mL with H2O2 (300, 30, 3 mM) or DTT (50, 5, 1 mM)
[3] = molecular target: cytosolic tryparedoxin from Leishmania major (Leishmania major) (UniProt E9ADX4); assay: SPR; as a6 but HBS-P buffer + 1 mM dithiotreitol (reducing conditions); LmTXNPx 40 nM-5 µM; for the dissociation rate DTT was added after 2080 s to the complex formed in HBS-P
[4] = molecular target: tryparedoxin-dependent peroxidase from Leishmania major (Leishmania major); assay: crystal structure; LmTXNPx about 12 mg/mL with 50 mM DTT, 22-26% PEG3350, 100 mM Bis-tris propane pH 8.0, 0.2 M KSCN, 293 K; five molecules per asymmetric unit, decamer from two adjacent asymmetric units; 3.0 Å
[5] = molecular target: cytosolic tryparedoxin from Leishmania major (Leishmania major) (UniProt E9ADX4); assay: SPR; BIACORE X, CM5 chip; LmTXN immobilised by amine coupling (about 1000 RU), LmTXNPx flowed over (40 nM-4.0 µM); 298 K; HBS-P buffer (10 mM HEPES pH 7.4, 0.15 M NaCl, 0.005% P-20); 30 µL/min; Scatchard analysis of Req
[6] = molecular target: the molecule itself; assay: crystal structure; LmTXN about 8 mg/mL, hanging drop, 293 K, 20-24% PEG 3350, 100 mM Tris-HCl pH 8.5, 50 mM MgCl2; one molecule per asymmetric unit, dimer by crystallographic two-fold; 1.8 Å

Molecule	Kd [1] [µM]	koff [1] [s⁻¹]	stoichiometry N [2]	Kd [3] [µM]	koff [3] [s⁻¹]	stoichiometry N [4]	Kd [5] [µM]	koff [5] [s⁻¹]	stoichiometry N [6]
tryparedoxin-dependent peroxidase from Leishmania major (enzyme)	> 20	> 0.1	10	> 20	0.009	10	1.1	5e-05	–
B1	–	–	–	–	–	–	–	–	2
